Test results from patent publication US20230151091A1 (NEW YORK UNIVERSITY, published 2023).

T1: human MuSK (human, UniProt O15146 24-495)
T1 construct: Recombinant protein coated on ELISA plates (R&D Systems cat. 10189-MK) or on the Biacore chip; also called human muscle-specific tyrosine protein kinase; full length human MuSK
T1 sequence: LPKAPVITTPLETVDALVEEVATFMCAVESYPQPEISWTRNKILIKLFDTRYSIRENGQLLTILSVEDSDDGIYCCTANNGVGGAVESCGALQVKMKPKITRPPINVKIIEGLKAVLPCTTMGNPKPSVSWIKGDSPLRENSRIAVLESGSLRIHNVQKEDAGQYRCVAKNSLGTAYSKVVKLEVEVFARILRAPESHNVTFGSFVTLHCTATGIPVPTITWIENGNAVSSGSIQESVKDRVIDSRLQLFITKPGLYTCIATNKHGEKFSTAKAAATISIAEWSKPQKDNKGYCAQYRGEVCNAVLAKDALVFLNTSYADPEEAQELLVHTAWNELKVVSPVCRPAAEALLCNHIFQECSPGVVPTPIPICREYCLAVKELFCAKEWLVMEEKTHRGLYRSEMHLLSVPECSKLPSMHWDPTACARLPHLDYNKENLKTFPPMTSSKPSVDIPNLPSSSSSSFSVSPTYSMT

T2: mouse MuSK (mouse, UniProt Q61006 22-494, limits assumed)
T2 construct: Coated on ELISA plates or on the Biacore chip; also called full length mouse MuSK; mouse MuSK (in house produced in HEK293 cells)
T2 sequence (looked up): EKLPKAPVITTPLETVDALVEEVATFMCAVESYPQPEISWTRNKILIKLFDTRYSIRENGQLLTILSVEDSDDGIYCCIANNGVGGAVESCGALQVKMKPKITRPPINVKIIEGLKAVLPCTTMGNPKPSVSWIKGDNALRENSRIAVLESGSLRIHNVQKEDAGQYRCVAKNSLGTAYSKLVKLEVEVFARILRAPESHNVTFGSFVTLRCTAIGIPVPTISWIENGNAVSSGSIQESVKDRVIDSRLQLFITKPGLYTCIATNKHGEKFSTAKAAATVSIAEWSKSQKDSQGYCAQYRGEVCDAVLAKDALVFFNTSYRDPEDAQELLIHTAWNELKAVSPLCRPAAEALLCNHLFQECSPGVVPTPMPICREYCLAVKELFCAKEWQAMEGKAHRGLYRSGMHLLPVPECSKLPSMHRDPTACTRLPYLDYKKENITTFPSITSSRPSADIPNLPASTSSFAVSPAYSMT

T3: mFz: Fz domain and C-terminal flanking sequence of mouse MuSK (D307 to T494) with C-terminal Avi- and … (mouse, UniProt Q61006 307-494, limits assumed, biotinylated in vitro using the BirA enzyme)
T3 construct: also called mouse Fz; not shown: Avi- and His6-tags
T3 sequence (looked up): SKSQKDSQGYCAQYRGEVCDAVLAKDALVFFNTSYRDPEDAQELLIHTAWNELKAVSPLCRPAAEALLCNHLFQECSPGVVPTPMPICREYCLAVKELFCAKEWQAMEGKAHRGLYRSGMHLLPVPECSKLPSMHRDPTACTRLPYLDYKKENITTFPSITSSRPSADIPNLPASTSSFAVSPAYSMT

T4: hECD: full-length extracellular region of human MuSK (E22 to T495) with C-terminal Avi- and His6-tags (human, UniProt O15146 22-495, biotinylated in vitro using the BirA enzyme)
T4 construct: also called human ECD; not shown: Avi- and His6-tags
T4 sequence: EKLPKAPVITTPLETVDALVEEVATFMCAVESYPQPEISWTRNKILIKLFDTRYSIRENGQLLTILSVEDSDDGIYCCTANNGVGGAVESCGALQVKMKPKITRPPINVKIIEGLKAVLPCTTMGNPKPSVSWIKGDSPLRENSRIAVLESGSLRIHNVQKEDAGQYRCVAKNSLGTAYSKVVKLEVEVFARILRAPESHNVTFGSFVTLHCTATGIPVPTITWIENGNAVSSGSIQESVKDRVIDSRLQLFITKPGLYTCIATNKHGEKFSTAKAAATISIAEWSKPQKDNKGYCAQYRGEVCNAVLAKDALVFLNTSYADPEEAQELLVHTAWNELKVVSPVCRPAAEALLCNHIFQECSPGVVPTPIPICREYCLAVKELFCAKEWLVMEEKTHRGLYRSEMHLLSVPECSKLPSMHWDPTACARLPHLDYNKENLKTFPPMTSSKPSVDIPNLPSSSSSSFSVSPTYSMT

T5: mECD: full-length extracellular region of mouse MuSK (E22 to T494) with C-terminal Avi- and His6-tags (mouse, UniProt Q61006 22-494, biotinylated in vitro using the BirA enzyme)
T5 construct: range 22-494; also called mouse ECD; not shown: Avi- and His6-tags
T5 sequence (looked up): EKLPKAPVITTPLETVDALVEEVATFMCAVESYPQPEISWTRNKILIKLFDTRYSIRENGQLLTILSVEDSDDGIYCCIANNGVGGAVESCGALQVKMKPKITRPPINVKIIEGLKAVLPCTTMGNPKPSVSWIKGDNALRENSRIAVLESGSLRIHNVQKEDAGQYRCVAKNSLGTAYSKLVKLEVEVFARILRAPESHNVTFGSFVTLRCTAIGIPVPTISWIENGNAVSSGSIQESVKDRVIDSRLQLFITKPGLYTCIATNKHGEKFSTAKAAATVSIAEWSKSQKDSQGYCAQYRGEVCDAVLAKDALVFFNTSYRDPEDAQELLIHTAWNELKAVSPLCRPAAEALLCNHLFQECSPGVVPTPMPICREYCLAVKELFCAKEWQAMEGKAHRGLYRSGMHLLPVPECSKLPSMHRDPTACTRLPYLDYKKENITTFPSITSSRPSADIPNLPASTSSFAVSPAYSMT

T6: hFz: Fz domain and C-terminal flanking sequence of human MuSK (K314-T495) with C-terminal Avi- and His6-tags (human, UniProt O15146 314-495, biotinylated in vitro using the BirA enzyme)
T6 construct: also called human Fz; not shown: Avi- and His6-tags
T6 sequence: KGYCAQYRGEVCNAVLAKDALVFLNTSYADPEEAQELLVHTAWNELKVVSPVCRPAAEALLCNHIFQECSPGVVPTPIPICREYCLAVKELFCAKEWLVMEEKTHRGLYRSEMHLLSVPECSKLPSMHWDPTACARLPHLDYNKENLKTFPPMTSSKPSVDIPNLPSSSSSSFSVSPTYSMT


Experiments:
human MuSK = target: T1, human MuSK; assay: Biacore T200, off rate at pH 5.5 against pH 7.4
Method in brief: (§1)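 Surface plasmon resonance was run with both human and mouse MuSK immobilized on the sensor chip. Fab association was always performed at pH 7.4 before the dissociation phase. Kinetic parameters were calculated from the binding curves.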

mouse MuSK = target: T2, mouse MuSK; assay: Biacore T200, off rate at pH 5.5 against pH 7.4
Method in brief: as §1

[1] = target: T3, mFz: Fz domain and C-terminal flanking …; assay: bead-binding assay, Fab format: biotinylated antigen on streptavidin beads, flow cytometry, 1:1 fit; average ± s.d., n=3
[2] = target: T4, hECD: full-length extracellular region …; assay: as above
[3] = target: T5, mECD: full-length extracellular region …; assay: as above
[4] = target: T6, hFz: Fz domain and C-terminal flanking …; assay: as above

Row | Ratio pH 5.5/7.4 of off rate (human MuSK) | Ratio pH 5.5/7.4 of off rate (mouse MuSK) | Kd [1] | Kd [2] | Kd [3] | Kd [4] | Binder
1 | 0.6 | 1 | 0.45 nM | 0.86 nM | 0.7 nM | 0.53 nM | X2 Fab (Fab, V domains shown, Fab format) VH: EVQLVESGGGLVQPGGSLRLSCAASGFTVSSSSIHWVRQAPGKGLEWVASISSSYGSTSYADSVKGRFTISADTSKNTAYLQMNSLRAEDTAVYYCARSEGDRYVSGYMGMDYWGQGTLVTVSS VL: DIQMTQSPSSLSASVGDRVTITCRASQSVSSAVAWYQQKPGKAPKLLIYSASSLYSGVPSRFSGSRSGTDFTLTISSLQPEDFATYYCQQSGVWLITFGQGTKVEIK
2 | 3.5 | 4.4 | 0.29 nM | 0.16 nM | 0.4 nM | 0.11 nM | X3 Fab (Fab, V domains shown, Fab format) VH: EVQLVESGGGLVQPGGSLRLSCAASGFTISSSSIHWVRQAPGKGLEWVASISSSSGYTYYADSVKGRFTISADTSKNTAYLQMNSLRAEDTAVYYCARSWYEMWMSGYFGFDYWGQGTLVTVSS VL: DIQMTQSPSSLSASVGDRVTITCRASQSVSSAVAWYQQKPGKAPKLLIYSASSLYSGVPSRFSGSRSGTDFTLTISSLQPEDFATYYCQQSSSSLITFGQGTKVEIK
